Target: F4, TNFα-derived peptide with a myristoylated lysine and fluorescein-labelled cysteine in the +2 position
Assay: fluorescence polarisation; SIRT2 in serial dilution from 1.6 µM, F4 10 nM, no NAD+, BSA from zero to 300 µM; 384-well plate, 20 mM Tris-HCl pH 7.8, 150 mM NaCl, 5 mM MgCl2; three independent replicates

B1: SIRT2 (enzyme)
chain: MAEPDPSHPLETQAGKVQEAQDSDSDSEGGAAGGEADMDFLRNLFSQTLSLGSQKERLLDELTLEGVARYMQSERCRRVICLVGAGISTSAGIPDFRSPSTGLYDNLEKYHLPYPEAIFEISYFKKHPEPFFALAKELYPGQFKPTICHYFMRLLKDKGLLLRCYTQNIDTLERIAGLEQEDLVEAHGTFYTSHCVSASCRHEYPLSWMKEKIFSEVTPKCEDCQSLVKPDIVFFGESLPARFFSCMQSDFLKVDLLLVMGTSLQVQPFASLISKAPLSTPRLLINKEKAGQSDPFLGMIMGLGGGMDFDSKKAYRDVAWLGECDQGCLALAELLGWKKELEDLVRREHASIDAQSGAGVPNPSTSASPKKSPPPAKDEARTTEREKPQ
B1 was tested, and the Kd was 0.007 to 0.018 µM.

Reference: paper PMC10138348, “Continuous Fluorescent Sirtuin Activity Assay Based on Fatty Acylated Lysines” (International Journal of Molecular Sciences, 2023)
